# Laboratory results taken from article PMC4501363.
# Target: actin-related protein 1 (human (endogenous in HEK293T)) (UniProt P61163)
# Assay: co-sedimentation
substance,measurement,value
actin-related protein 1 (from UniProt P61163 1-376) (natural protein),percent of Arp1 in the monomer/dimer pool,< 5%
